The results in this text go back to US20240343811A1 (SHANDONG SIMCERE BIOPHARMACUTICAL, published 2024).

The target in assay [1] is T1, human CD16a (158V), full length, on cells (human, UniProt P08637 17-254). Nature of the assay: cell-based or functional assay.
In assay [2] the target is T1, human CD16a (158V), full length, on …. As to the kind of experiment: FACS on FlpinCHO cells.
In assay [3] the target is T2, human CD16a (158F), full length, on FlpinCHO cells (human, UniProt P08637 17-254). Nature of the assay: FACS on FlpinCHO cells.
The target in assay [4] is T3, cynomolgus monkey CD16, full length, on FlpinCHO cells (cynomolgus monkey, UniProt Q8SPW2 17-254).
T3 construct: also called FlpinCHO-cyno CD16; Flipin CHO-cyno CD16
T3 sequence (Q8SPW2 other isoform, or with tags, fused parts or gaps limits assumed): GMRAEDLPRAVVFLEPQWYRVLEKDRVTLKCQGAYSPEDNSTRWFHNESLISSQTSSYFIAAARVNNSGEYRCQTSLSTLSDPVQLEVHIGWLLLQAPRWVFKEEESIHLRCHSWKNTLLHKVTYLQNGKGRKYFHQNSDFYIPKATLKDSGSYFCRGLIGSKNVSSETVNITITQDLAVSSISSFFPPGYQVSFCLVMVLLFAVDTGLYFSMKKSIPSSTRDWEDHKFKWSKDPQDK
Nature of the assay: FACS on FlpinCHO cells. The procedure: (§1) The required cells were scale-up cultured in a T-75 cell culture flask to the logarithmic growth phase. The medium was aspirated, and the cells were washed twice with a PBS buffer and then digested with trypsin. After the digestion was terminated, the cells were washed twice with the PBS buffer. The cells were counted, and then the cell pellet was resuspended with a [PBS+2% (w/w) BSA] blocking solution to 2×10⁶ cells/ml, and added to a 96-well FACS reaction plate at 50 μl/well. […] 50 μl/well of the antibody to be detected was added at different concentrations, and incubated on ice for 1 hour. […] The mixture was centrifuged and washed 5 times with PBS, and FACS (FACS Canto II, purchased from BD Company) was used for detection and result analysis. Data analysis was performed by software (CellQuest) to obtain the mean fluorescence intensity (MFI) of the cells. Then, software (GraphPad Prism8) was used for analysis, data fitting and EC50 value calculation.
(§2) Flipin CHO-cyno CD16 cells were subjected to FACS detection and data analysis according to the method of Example 3.1.

The target in assay [5] is T4, human CD16b (NA1), full length, on FlpinCHO cells (human, UniProt O75015 17-200).
T4 construct: also called FlpinCHO-human CD16b (NA1)
T4 chain: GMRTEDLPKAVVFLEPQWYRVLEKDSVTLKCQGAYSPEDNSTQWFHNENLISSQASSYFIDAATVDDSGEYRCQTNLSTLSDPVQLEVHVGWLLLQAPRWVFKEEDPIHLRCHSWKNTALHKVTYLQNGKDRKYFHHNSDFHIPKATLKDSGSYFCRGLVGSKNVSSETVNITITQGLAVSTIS
Nature of the assay: FACS on FlpinCHO cells. In short, it runs like this:
(§3)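 EC50 values come from fitted MFI curves measured by FACS. Antibody dilutions were bound for 1 hour on ice to CD16b-transfected FlpinCHO cells suspended in PBS with 2% BSA blocking solution.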

Assay [6] concerns the target T5, human CD16b (NA2), full length, on FlpinCHO cells (human, UniProt O75015 17-200).
T5 construct: also called FlpinCHO-human CD16b (NA2)
T5 chain: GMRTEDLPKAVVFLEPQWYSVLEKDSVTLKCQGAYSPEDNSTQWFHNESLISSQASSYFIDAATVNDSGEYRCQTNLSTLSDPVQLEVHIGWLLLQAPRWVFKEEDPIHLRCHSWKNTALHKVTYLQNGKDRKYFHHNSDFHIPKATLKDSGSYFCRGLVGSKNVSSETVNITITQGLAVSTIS
Nature of the assay: FACS on FlpinCHO cells. In short, it runs like this:
as §3

Assay [7] addresses T6, Human CD16a (158F)-his (human).
T6 construct: entry holds ECD, AVI tag, linker and His tag
As to the kind of experiment: SPR (Biacore), antibody captured on Protein A. A digest of the protocol: (§4)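 Protein A–captured antibody was probed with CD16-his ECD in HBS-EP+ at 25 °C: five 2-fold dilutions from 200 nM, 240 s at 30 μL/min, dissociation up to 600 s. Glycine pH 1.5 regenerated the chip. Apparent KD came from a double-referenced 1:1 Langmuir fit.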
A general note: Surface plasmon resonance follows binding to a sensor surface in real time, without labels.

In assay [8] the target is T1, human CD16a (158V), full length, on …. As to the kind of experiment: cell-based or functional assay. The source holds these as a separate data set.
Assay [9] addresses T3, cynomolgus monkey CD16, full length, on …. Nature of the assay: FACS on FlpinCHO cells. As for the experimental part:
as §1, §2
The source holds these as a separate data set.

Assay [10] deals with T1, human CD16a (158V), full length, on …. Nature of the assay: FACS, biotinylated antibody.
Assay [11] has as its target T2, human CD16a (158F), full length, on …. As to the kind of experiment: FACS, biotinylated antibody. On the technique in general: A flow cytometer gives signals particle by particle.
The target in assay [12] is T1, human CD16a (158V), full length, on …. As to the kind of experiment: FACS on FlpinCHO cells. A digest of the protocol: (§5)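 EC50 comes from fitted concentration–MFI curves. Antibody dilutions were bound to the cells for 1 hour on ice in PBS blocking buffer with 2% BSA, followed by washing and flow cytometric readout.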
The source holds these as a separate data set.

Assay [13] concerns the target T2, human CD16a (158F), full length, on …. As to the kind of experiment: FACS on FlpinCHO cells. In short, it runs like this: as §5
This is another data set of the same source.

Assay [14] concerns the target T4, human CD16b (NA1), full length, on …. Nature of the assay: FACS on FlpinCHO cells. A digest of the protocol:
as §3

For assay [15], the target named is T5, human CD16b (NA2), full length, on …. Nature of the assay: FACS on FlpinCHO cells. A digest of the protocol: as §3
The target of assay [16] is T1, human CD16a (158V), full length, on …. Nature of the assay: FACS, biotinylated antibody, +10 mg/mL human immunoglobulin.
In assay [17] the target is T2, human CD16a (158F), full length, on …. The description is as above.
Assay [18] concerns the target T7, Human CD16a (158V)-his (human).
T7 construct: entry holds ECD, AVI tag, linker and His tag
Nature of the assay: SPR (Biacore), antibody captured on Protein A. A digest of the protocol: as §4

Assay [19] concerns the target T8, CD16 on primary human NK cells (human, UniProt P08637 17-254).
T8 construct: whole, on cells; also called resting NK cells
Nature of the assay: FACS on human NK cells. A digest of the protocol:
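EC50 came from curve fitting of flow-cytometric MFI. Antibody titrations were bound for 1 hour on ice to fresh human NK cells blocked in PBS with 2% (w/w) BSA (2×10⁶ cells/ml), followed by five PBS washes before acquisition.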

Like-named read-outs stand apart in the source and are kept apart here.

B1: VHH12-02 humanized VHH-Fc antibody (Fc fusion)
chain: EVQLVESGGGLVQPGGSLRLSCAASGITFSSYAMGWYRQAPGKQRELVAAINRFGLTYYVDSVKGRFTISRDNAKNSLYLQMNSLRAEDTAVYYCNTGGVYSHPDYYTGTYWGQGTMVTVSSEPKSSDKTHTCPPCPAPEEFGGPSVFLFPPKPKDTLMISRTPEVTCVVVAVSHEDPEVKFNWYVDGVEVHNAKTKPREEQYNSTYRVVSVLTVLHQDWLNGKEYKCKVSNKALPAPIEKTISKAKGQPREPQVYTLPPSREEMTKNQVSLTCLVKGFYPSDIAVEWESNGQPENNYKTTPPVLDSDGSFFLYSKLTVDKSRWQQGNVFSCSVMHEALHNHYTQKSLSLSPGK
Regarding B1, the “EC50, activation activity for Jurkat cell” value (from here on “EC50, activation activity”) in assay [1] was determined as 0.01 nM. Also, the Maximum fluorescence value in assay [1] came to 148000. Further, the EC50 in [2] came out at 0.45 nM; in assay [3] it was 0.46 nM; in [4], 0.74 nM; in [5], 0.94 nM. Moreover, the “Maximum mean fluorescence intensity” value in assay [2] was 6600; in [3], 7440; in assay [4] it was 16900; in assay [5], 39700; in [6], 73300. In [7], this molecule displayed a Kd of 75.1 nM. Further, in assay [7], the koff was found to be 0.0237 s⁻¹. The molecule also had a kon in assay [7] of 316000 M⁻¹ s⁻¹.

B2: VHH02 VHH-Fc antibody (Fc fusion)
chain: EVQLVESGGGLVQAGGSLRLSCATSGITFSSYAMGWYRQAPGKQRELVAGINRFGLTNYADSVKGRFTISRDNAKNTVYLQMTSLKSEDTAVYYCNTGGVYSHPNYYTGIYWGQGTQVTVSSEPKSSDKTHTCPPCPAPEFEGGPSVFLFPPKPKDTLMISRTPEVTCVVVAVSHEDPEVKFNWYVDGVEVHNAKTKPREEQYNSTYRVVSVLTVLHQDWLNGKEYKCKVSNKALPAPIEKTISKAKGQPREPQVYTLPPSREEMTKNQVSLTCLVKGFYPSDIAVEWESNGQPENNYKTTPPVLDSDGSFFLYSKLTVDKSRWQQGNVFSCSVMHEALHNHYTQKSLSLSPGK
As for B2, in assay [8], the “EC50, activation activity” value amounted to 0.3 nM. Moreover, the Maximum fluorescence value in [8] came out at 178000. The EC50 in assay [9] was 0.88 nM; in assay [10] it was 0.33 nM; in [11], 0.33 nM; in assay [12] it was 0.3 nM; in [13] it was 1.17 nM; in assay [14], 4.27 nM. Besides, the figures for the EC50 in assay [15], in assay [16] and in [17] were 5.45 nM, 1.18 nM and 1.21 nM, respectively. In addition, the “Maximum mean fluorescence intensity” value is 17100 in [9]; 7300 in assay [10]; 6310 in assay [11]; 6000 in assay [12]; 5210 in assay [13]; 31900 in assay [14]. The results for the “Maximum mean fluorescence intensity” value in assay [15], in assay [16] and in assay [17] were 52400, 7660 and 6020, respectively. Moreover, the Kd in assay [7] came out at 132 nM; in [18] it was 96.5 nM. The koff in assay [7] was determined as 0.027 s⁻¹; in assay [18] it was 0.0179 s⁻¹. Besides, the kon in assay [7] is 205000 M⁻¹ s⁻¹; in assay [18] it was 186000 M⁻¹ s⁻¹.

B3: VHH14 VHH-Fc antibody (Fc fusion)
chain: EVQLVESGGGLVQAGGSLRLSCAASGITFSSYAMAWYRQDPGKQRELVAAINRFGLTNYADSVKGRFTISRDNAKNTVYLEMTSLKPEDTAVYYCNTGGVYSHPNYYTGTYWGQGTQVTVSSEPKSSDKTHTCPPCPAPEFEGGPSVFLFPPKPKDTLMISRTPEVTCVVVAVSHEDPEVKFNWYVDGVEVHNAKTKPREEQYNSTYRVVSVLTVLHQDWLNGKEYKCKVSNKALPAPIEKTISKAKGQPREPQVYTLPPSREEMTKNQVSLTCLVKGFYPSDIAVEWESNGQPENNYKTTPPVLDSDGSFFLYSKLTVDKSRWQQGNVFSCSVMHEALHNHYTQKSLSLSPGK
Take B3: the EC50 was determined as 0.17 nM in assay [19]; 0.18 nM in [9]; 0.38 nM in assay [10]; 0.27 nM in assay [11]; 0.27 nM in assay [12]; 0.23 nM in assay [13]. The EC50 was found to be 0.93 nM in [14], 1.44 nM in [15], 1.1 nM in [16] and 0.91 nM in [17]. Besides, the “Maximum mean fluorescence intensity” value in [19] is 2620; in [9], 16400; in [10] it was 8180; in assay [11], 5510; in [12], 6250; in assay [13], 5750. The “Maximum mean fluorescence intensity” value in assay [14] came out at 41900; in assay [15], 61400; in assay [16], 7900; in assay [17], 5070. Besides, the “EC50, activation activity” value in assay [8] was 0.02 nM. In [8], this molecule had a Maximum fluorescence value of 169000. The Kd in [7] was determined as 25 nM; in [18], 19.3 nM. The koff was determined as 0.0296 s⁻¹ in assay [7] and 0.0602 s⁻¹ in assay [18]. Further, the values for the kon in [7] and in assay [18] were 1.18e+06 M⁻¹ s⁻¹ and 3.12e+06 M⁻¹ s⁻¹, respectively.

One may read the EC50 as the concentration giving half of the maximal effect. What is called Kd is the concentration at which binding is half-saturated. By koff is commonly meant the first-order rate constant of dissociation. The kon is the second-order rate constant of association.
